This note sets out measurements from CN104231083A (GMAX BIOPHARM CO LTD, dated 2014).

This assay addresses T1, 人胰高血糖素受体 (human glucagon receptor) (human, UniProt P47871 26-477).
T1 construct: Overexpressed on stably transfected CHO-DHFR- cells; also called hGCGR; GCGR
In words: flow cytometry, hybridoma supernatant on CHO-DHFR-hGCGR cells. Background: Flow cytometry measures light scatter and fluorescence of single cells or particles in a stream.

T1 sequence (P47871 26-477 limits assumed): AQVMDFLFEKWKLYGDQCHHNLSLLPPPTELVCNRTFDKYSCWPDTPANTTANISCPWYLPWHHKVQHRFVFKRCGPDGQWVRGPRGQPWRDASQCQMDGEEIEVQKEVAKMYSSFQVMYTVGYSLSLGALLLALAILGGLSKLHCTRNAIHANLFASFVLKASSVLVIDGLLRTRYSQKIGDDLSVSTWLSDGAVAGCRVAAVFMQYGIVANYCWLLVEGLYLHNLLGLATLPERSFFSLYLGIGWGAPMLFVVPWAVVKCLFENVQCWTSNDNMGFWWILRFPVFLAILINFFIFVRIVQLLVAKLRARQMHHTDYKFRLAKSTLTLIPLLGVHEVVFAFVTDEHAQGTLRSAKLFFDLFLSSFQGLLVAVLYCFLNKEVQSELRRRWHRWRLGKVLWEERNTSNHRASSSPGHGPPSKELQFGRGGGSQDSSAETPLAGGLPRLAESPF

B1: 单克隆抗体A-3 (antibody, V domains shown)
VH: EVKLVESGGGLVQPGGSRKLSCAASGFPFSDYGLAWFRQAPGKGPEWVAFISNLAYSTYYADTVTGRFTISRENAKNTLFLEMSSLRSEDTAMYYCARDRGLFDYWGQGTTLTVSS
VL: DVVMTQIPLSLPVSLGDQASISCRSSQSLVHSNGNTYLHWYLQKPGQSPKLLIYKVSNRFSGVPDRFSGSGSGTDFTLKISRVEAEDLGVYFCSQSTHVPPYTFGGGTKLEIKR
notes: Mouse monoclonal antibody; Tested as hybridoma supernatant (FACS) and as purified antibody / antibody supernatant (cAMP assay); also called L3H3
Take B1: the binding result is “binds”.

B2: 单克隆抗体A-1 (antibody, V domains shown)
VH: QIQLVQSGPELKKPGETVKISCKASGYTFTNYGMNWVKQAPGKGLKWMGWINTNTGEPTYVEEFKGRFAFSLETSDSTAYLQINNLKNEDTATYFCANLYWGQGTTLTVSS
VL: DVLMTQTPLSLPVSLGDQASISCRSSQNILHSNGNTYLEWYLQKPGQSPKLLIFKVSNRFSGVPDRFSGSGSGTDFTLKISRVEAEDLGVYYCFQGSHVPWTFGGGTKLEIK
notes: Mouse monoclonal antibody; Tested as hybridoma supernatant (FACS) and as purified antibody / antibody supernatant (cAMP assay); also called L1H1
As to B2, the binding result is “binds”.

B3: 单克隆抗体A-2 (antibody, V domains shown)
VH: QIQLVQSGPELKKPGETVKISCKASGYTFTNYGMNWVKQAPGKGLKWMGWINTYNGEPTYADDFKGRCAFFLETSASTAYLQLNNLKNEDTATYFCTREYYISNYGAMDYWGQGTSVTVSS
VL: DIQMTQTTSSLSASLGDRVTISCRASQDISNYLNWYQQKPDGTVKLLIYYTSRLHSGVPSRFSGSGSGADYSLTIANLDQEDIATYFCQQGILFPLTFGAGTKLELK
notes: Mouse monoclonal antibody; Tested as hybridoma supernatant (FACS) and as purified antibody / antibody supernatant (cAMP assay); also called L2H2
In the case of B3, the binding result was “binds”.
